Test results: the domain aggregation screens of Martell et al. (2025)

assay: soluble fraction after stress (log2 fold change); higher = more stays soluble; pooled small domains, quantitative proteomics; conditions: stress: 75 degC
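Note: 20 min heating vs room temperature control held 20 min.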

Sequence | soluble fraction (log2)
HMVKLSDGIVEHIKSLIMAGRLKPGDKLPPEREFAATLGVSRTALREAVRTLSLMGLLDARQGEGTFVSG | -0.135
HMVKPQANTIYKEYIKYRANLQNKNEFLSFSEYAKQKHNLEQMSEIMVDANLKEEMLETLKEMS | -0.0266
HMVKSDLVGHRFILVEDVTPKLTPKYHYSGINWKLITTDNLVAGTRVEVIQVDVGKFHIKAIK | -1.85
HMVKSIDEIYNEAVKSLANEDYDAAKKLFNYLINNFSDPDKFPLSLFWLAEIEFSSSNFDASKNYYMQ | 0.0365
HMVKSSVTEVISMINALPVTVKPEDKADIISARMAYDTLTEDEKALVTNYEILTAAETRFNELIATT | 0.275
HMVKTIINGEEKDFDAQDFQTFGDFLKKVIPEGQILKSLKINSKDVPIAFIDELKSATVDENITIEMELA | 0.682
HMVLAEPLSERELDILRLLAAGDSNKEIAAVLYITEGTVKNHVTNILGKLDARDRTQAALRARELGL | -1.21
HMVLGDQTFQSASAPKVFFGGDAAYGPKNIITAVAHGHDAAVSIDRFLHGEDVSKRPGPQVNLVS | 0.287
HMVLRPDDVEDSLWREWVSHRKAKRAAVTEGVLKTFRQEATKASFTLADAMRKSIDRGWTGFEAEWVARET | -0.299
HMVLSPAQVRRALMVSGLFTEARVARQLGVPMDLKQILRIILRNTPPQSAMARELESAIDEIESRNAMRD | -1.7
HMVLSTRERMSNILATLKGGHFVNFSDLFTPEEGRLGVVVTFLAMLELIKESLLDIVQHEVLGPIHVKARV | 0.00479
HMVLTGTIKKYNNERGFGFISTSNFGDVFFHIKDFQKGEQPIPGREVYFEVVKKENKKRAIHVYYSD | -1.95
HMVLVSNYGEVVRKARERKGLDHGSLAMKISEKKSIITSVESGNMKPNEKLIKKLENFLNINLM | -1.69
HMVMIPDLVGETIEDAKDILEGLGFEVEVRSEFPESDWGRPFARVTSLSPSAGQEVAKGTLVIIRSF | -1.05
HMVMLIVMNHTASQADIDKVIEVVSGMGFTAAPIPGGERTAIGVLGNKGYVDDSTIRDLPGVQQAIHVSKP | -1.21
HMVMSVGENIAYFRKKLGLTQEMLSERIGVTAQAVSKWENGVTNPDISLLPRISEALGIGIGDLFD | -1.94
HMVNAVKFAIEKMPYKYSSLLTLKYVMGYSGKEIAEITGLSETNVRQQLLKGRKLLESMLEE | -2.9
HMVNGTPADPYDVLGVESSASPEELRAAWQTLVRQNHPDQLMARGVPLEAVKLAEARLVAINQAWDDLTK | -0.0568
HMVNHVGITVSNLERSIQFYEALTGKKIANQDTIGGKRMAQTQGLADTLIKYANLHLDNLNIDLLEYVE | -0.92

Sequence | soluble fraction (log2)
HMVNIAVMTVSDTRTEADDKSGSLLVSKIEGDGHVLADRAIITDDVPRIIAKLKEWIESPQVDVVVT | -0.0813
HMVNINEVEVSRDLAHAKVFVTFVGDRTDEINTQALKVLNAAQGFLRSRIASNNHMRTTPRIHF | -0.567
HMVNIPEIAKKFGKSTSEVFEQIQIGEKHEMEHTNDPKKARKIALDHLSDDMDYYKKLKKLG | 0.212
HMVNLKQVELREHHPWVGHKIKELDISRHTLIVMIRRGDNAIVPNGDTLIKSGDIVFVFSKR | -2.76
HMVNPHPVYRSWGLLYVEARDGDSLESIAKEFGFSVKKLAKYNEVPKDYPLEAGDIVYLEKKKK | -1.63
HMVNPIDFYLLFRTELQRLAEHPITVDRLTEVTGLNKLQVLDWLKRAEQDGLVKKLNRPTRYQLN | 0.233
HMVPAMGSLTLIKGGVNLRNAPGGLTIAQLDRGLVLSYTKFVQKDGYTWYLVNSPKGTGYVRSDVVQLGS | -2.58
HMVPDGFDQLTEREYQVAMAVGKGLNNKEIASQLGLGERTVKAHLTTTFEKLHVRDRVQLALIVNRL | -0.683
HMVPDVVGKDYALAQAELEGANLVVAKGSSRYDDTLPAGVVLATDPKVGTVVKPGAKVTVILSK | 0.217
HMVPLSMLTEGQIFRGQVLDITSQGIKIQLNPEQILFARLGEQVELNIGQQMAFQVRENKGDQLIIHPMQN | -0.353
HMVPVQLTPRELQVARLAAHGASSPEIAAELRVSRRTVDNQLGRVYAKLGIAGRAELAAALSRLPVSV | -1.07
HMVPVSIYAYNKIKTAILNNELMPGEKLVEASLAETLNMSRTPIREALRQLEQEGFVTYYPQKGSIVSH | -1.25
HMVQAQGARIREARVQRGLSQAQLGEPRYSGSYISHIENGRRSPGTDVLAFIAARLGLEPGALDS | -0.978
HMVQIFIPVVHDDHWFLIVFSREEDTFYVLDSLPSLSRISTINGIISTLKEHLQQASVGPQYSVKVLPVK | 0.226
HMVQLAEGERYRRIQEANDFINRQQWPGKAAMGRLKDTEKAQYNLWLDYLDALEAVDTSSAPKINWPVPPE | 0.2
HMVQQAVNMAKPGKLFTGPSPTSKALRDLDAGAMLYPTGEKQGPFWKVQDELGNEGWVAMGLLQLA | -0.0352
HMVQVDNELTEFSVQSITRGIDALGEVTIRVTAPDGGVYTGRGADNDIIVSSTKAYLNALNRLLNDK | 0.0321
HMVQYVDFVKRMIEELPWWHRRMLELKYLDGLTYEEIADELQVPVGTVKGTLHRAKELFQEILKNN | -3.29
HMVRDPYELLEVPREATPDEIKSAFRKLAARHHPDRNPDDPGAQERFKEINAAYQLLSDPQKRAMFDRFGA | 0.159
